According to article doi:10.1101/2023.03.29.533101 (bioRxiv, 2023):
Read-outs that look alike come from different tables or passages of the source.

Columns and labels:
crystal structure [1] = biological target: the molecule itself; experiment: crystal structure
crystal structure [2] = biological target: the molecule itself; experiment: crystal structure; remark: listed apart in the source

B1: OpgD from E. coli (EcOpgD) D388N mutant (enzyme, Escherichia coli, UniProt P40120 33-551, looked up)
chain: ADSDIADGQTQRFDFSILQSMAHDLAQTAWRGAPRPLPDTLATMTPQAYNSIQYDAEKSLWHNVENRQLDAQFFHMGMGFRRRVRMFSVDPATHLAREIHFRPELFKYNDAGVDTKQLEGQSDLGFAGFRVFKAPELARRDVVSFLGASYFRAVDDTYQYGLSARGLAIDTYTDSKEEFPDFTAFWFDTVKPGATTFTVYALLDSASITGAYKFTIHCEKSQVIMDVENHLYARKDIKQLGIAPMTSMFSCGTNERRMCDTIHPQIHDSDRLSMWRGNGEWICRPLNNPQKLQFNAYTDNNPKGFGLLQLDRDFSHYQDIMGWYNKRPSLWVEPRNKWGKGTIGLMEIPTTGETLNNIVCFWQPEKAVKAGDEFAFQYRLYWSAQPPVHCPLARVMATRTGMGGFSEGWAPGEHYPEKWARRFAVDFVGGDLKAAAPKGIEPVITLSSGEAKQIEILYIEPIDGYRIQFDWYPTSDSTDPVDMRMYLRCQGDAISETWLYQYFPPAPDKRQYVDDRVMS
**Q.** Does B1 bind (crystal structure [1])?
**A.** Result: binds

B2: OpgG from E. coli (EcOpgG) D361N mutant (enzyme, Escherichia coli, UniProt P33136 23-511, looked up)
chain: FSIDDVAKQAQSLAGKGYETPKSNLPSVFRDMKYADYQQIQFNHDKAYWNNLKTPFKLEFYHQGMYFDTPVKINEVTATAVKRIKYSPDYFTFGDVQHDKDTVKDLGFAGFKVLYPINSKDKNDEIVSMLGASYFRVIGAGQVYGLSARGLAIDTALPSGEEFPRFKEFWIERPKPTDKRLTIYALLDSPRATGAYKFVVMPGRDTVVDVQSKIYLRDKVGKLGVAPLTSMFLFGPNQPSPANNYRPELHDSNGLSIHAGNGEWIWRPLNNPKHLAVSSFSMENPQGFGLLQRGRDFSRFEDLDDRYDLRPSAWVTPKGEWGKGSVELVEIPTNDETNNNIVAYWTPDQLPEPGKEMNFKYTITFSRDEDKLHAPDNAWVQQTRRSTGDVKQSNLIRQPDGTIAFVVDFTGAEMKKLPEDTPVTAQTSIGDNGEIVESTVRYNPVTKGWRLVMRVKVKDAKKTTEMRAALVNADQTLSETWSYQLPANE
**Q.** Does B2 bind (crystal structure [2])?
**A.** Result: binds
